These results are taken from US20060148057.

Series [1] addresses GST-SOCS3 (full-length) [GST: P08515].
The target in series [2] is GST-SOCS3-N (1-45aa) [GST: P08515].
Series [3] has as its target GST-SOCS3-DC (1-138aa, deletion of the C-terminal SOCS box) [GST: P08515].
Series [4] has as its target Flag-ASK1-ΔN, Q99683.
Series [5] concerns the target endogenous ASK1 of bovine aorta endothelial cells (BAEC), A0AAA9.

B1: HA-tagged ASK1-WT (protein)
chain: MSTEADEGITFSVPPFAPSGFCTIPEGGICRRGGAAAVGEGEEHQLPPPPPGSFWNVESAAAPGIGCPAATSSSSATRGRGSSVGGGSRRTTVAYVINEASQGQLVVAESEALQSLREACETVGATLETLHFGKLDFGETTVLDRFYNADIAVVEMSDAFRQPSLFYHLGVRESFSMANNIILYCDTNSDSLQSLKEIICQKNTMCTGNYTFVPYMITPHNKVYCCDSSFMKGLTELMQPNFELLLGPICLPLVDRFIQLLKVAQASSSQYFRESILNDIRKARNLYTGKELAAELARIRQRVDNIEVLTADIVINLLLSYRDIQDYDSIVKLVETLEKLPTFDLASHHHVKFHYAFALNRRNLPGDRAKALDIMIPMVQSEGQVASDMYCLVGRIYKDMFLDSNFTDTESRDHGASWFKKAFESEPTLQSGINYAVLLLAAGHQFESSFELRKVGVKLSSLLGKKGNLEKLQSYWEVGFFLGASVLANDHMRVIQASEKLFKLKTPAWYLKSIVETILIYKHFVKLTTEQPVAKQELVDFWMDFLVEATKTDVTVVRFPVLILEPTKIYQPSYLSINNEVEEKTISIWHVLPDDKKGIHEWNFSASSVRGVSISKFEERCCFLYVLHNSDDFQIYFCTELHCKKFFEMVNTITEEKGRSTEEGDCESDLLEYDYEYDENGDRVVLGKGTYGIVYAGRDLSNQVRIAIKEIPERDSRYSQPLHEEIALHKHLKHKNIVQYLGSFSENGFIKIFMEQVPGGSLSALLRSKWGPLKDNEQTIGFYTKQILEGLKYLHDNQIVHRDIKGDNVLINTYSGVLKISDFGTSKRLAGINPCTETFTGTLQYMAPEIIDKGPRGYGKAADIWSLGCTIIEMATGKPPFYELGEPQAAMFKVGMFKVHPEIPESMSAEAKAFILKCFEPDPDKRACANDLLVDEFLKVSSKKKKTQPKLSALSAGSNEYLRSISLPVPVLVEDTSSSSEYGSVSPDTELKVDPFSFKTRAKSCGERDVKGIRTLFLGIPDENFEDHSAPPSPEEKDSGFFMLRKDSERRATLHRILTEDQDKIVRNLMESLAQGAEEPKLKWEHITTLIASLREFVRSTDRKIIATTLSKLKLELDFDSHGISQVQVVLFGFQDAVNKVLRNHNIKPHWMFALDSIIRKAVQTAITILVPELRPHFSLASESDTADQEDLDVEDDHEEQPSNQTVRRPQAVIEDAVATSGVSTLSSTVSHDSQSAHRSLNVQLGRMKIETNRLLEELVRKEKELQALLHRAIEEKDQEIKHLKLKSQPIEIPELPVFHLNSSGTNTEDSELTDWLRVNGADEDTISRFLAEDYTLLDVLYYVTRDDLKCLRLRGGMLCTLWKAIIDFRNKQT
As for B1, the “phosphorylation in an in vitro kinase assay” value in series [1], in series [2] and in series [3] was “only the full-length GST-SOCS3 was phosphorylated by ASK1” throughout.

B2: Flag-tagged Trx-WT (protein)
chain: MVKQIESKTAFQEALDAAGDKLVVVDFSATWCGPCKMIKPFFHSLSEKYSNVIFLEVDVDDCQDVASECEVKCMPTFQFFKKGQKVGEFSGANKEKLEATINELV
On to B2, for which the “ASK1 ubiquitination and degradation (Western blot with anti-Flag)” value in series [4] is “expression of Trx did not induce ubiquitination and degradation of ASK1 -ΔN, a mutant ASK1 lacking the N-terminal Trx-binding domain”. Also, the “ASK1 ubiquitination and degradation (Western blot; IP anti-ASK1, blot anti-Ub)” value in series [5] is reported as “Trx expression significantly increased ASK1 ubiquitination”.
